Results taken from patent US20260092093A1 (TJ BIOPHARMA SHANGHAI, published 2026).

T1: hIL-18 receptor (hIL-18Rα and hIL-18Rβ) (human, UniProt Q13478 19-541; O95256 20-599)
T1 sequence (looked up) 1: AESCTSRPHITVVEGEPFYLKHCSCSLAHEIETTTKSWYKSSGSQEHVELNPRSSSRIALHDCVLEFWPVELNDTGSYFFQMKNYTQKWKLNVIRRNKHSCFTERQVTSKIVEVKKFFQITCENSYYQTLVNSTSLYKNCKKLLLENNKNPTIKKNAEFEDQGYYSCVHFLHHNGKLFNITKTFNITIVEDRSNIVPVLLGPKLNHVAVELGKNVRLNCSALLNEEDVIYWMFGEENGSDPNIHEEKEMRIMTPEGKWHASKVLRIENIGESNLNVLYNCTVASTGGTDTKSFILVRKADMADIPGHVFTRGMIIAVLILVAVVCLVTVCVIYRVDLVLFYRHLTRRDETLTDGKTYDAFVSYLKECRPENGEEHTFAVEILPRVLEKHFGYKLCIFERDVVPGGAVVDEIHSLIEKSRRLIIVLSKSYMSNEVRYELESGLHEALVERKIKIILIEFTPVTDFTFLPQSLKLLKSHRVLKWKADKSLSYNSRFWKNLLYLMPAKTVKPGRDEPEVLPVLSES
T1 sequence (looked up) 2: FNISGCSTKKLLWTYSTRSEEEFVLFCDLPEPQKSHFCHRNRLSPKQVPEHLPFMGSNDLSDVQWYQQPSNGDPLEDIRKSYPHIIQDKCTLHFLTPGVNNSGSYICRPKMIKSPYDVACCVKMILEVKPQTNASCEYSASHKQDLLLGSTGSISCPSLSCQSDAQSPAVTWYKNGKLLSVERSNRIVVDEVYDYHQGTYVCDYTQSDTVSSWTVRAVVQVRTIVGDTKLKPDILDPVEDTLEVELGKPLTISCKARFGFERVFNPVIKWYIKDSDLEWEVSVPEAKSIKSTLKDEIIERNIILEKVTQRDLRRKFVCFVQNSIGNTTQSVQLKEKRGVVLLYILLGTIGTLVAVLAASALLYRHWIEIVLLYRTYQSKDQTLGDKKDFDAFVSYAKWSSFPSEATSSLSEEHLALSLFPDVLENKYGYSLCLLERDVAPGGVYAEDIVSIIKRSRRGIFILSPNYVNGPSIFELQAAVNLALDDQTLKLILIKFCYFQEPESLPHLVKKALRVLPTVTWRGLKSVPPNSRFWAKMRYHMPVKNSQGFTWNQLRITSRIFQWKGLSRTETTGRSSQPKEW

T2: hIL-18BP-hFc (human, UniProt O95998 31-194, limits assumed)
T2 sequence (looked up): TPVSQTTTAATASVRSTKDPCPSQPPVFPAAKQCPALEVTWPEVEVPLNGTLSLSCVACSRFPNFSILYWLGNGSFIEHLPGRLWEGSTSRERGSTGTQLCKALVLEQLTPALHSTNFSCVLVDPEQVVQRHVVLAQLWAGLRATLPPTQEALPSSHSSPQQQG


Columns and labels:
Assay in all cases: cell-based or functional assay
[1] = molecular target: T1, hIL-18 receptor (hIL-18Rα and hIL-18Rβ)
hIL-18BP-hFc [2] = molecular target: T2, hIL-18BP-hFc
[3] = molecular target: T1, hIL-18 receptor (hIL-18Rα and hIL-18Rβ); remark: listed apart in the source
hIL-18BP-hFc [4] = molecular target: T2, hIL-18BP-hFc; remark: listed apart in the source

Row | Binder | EC50 (nM), hIL-18 reporter assay [1] [nM] | EC50 (nM) in the Presence of 1 µg/mL hIL-18BP-hFc, hIL-18 reporter assay (hIL-18BP-hFc [2]) [nM] | EC50 Fold Change (+BP/-BP), hIL-18 reporter assay (hIL-18BP-hFc [2]) [fold] | EC50 (nM), PBMC assay (hIFNγ release) [3] [nM] | EC50 (nM) in the Presence of 1 µg/mL hIL-18BP-hFc, PBMC assay (hIFNγ release) (hIL-18BP-hFc [4]) [nM] | EC50 Fold Change (+BP/-BP), PBMC assay (hIFNγ release) (hIL-18BP-hFc [4]) [fold]
1 | IL-18 variant polypeptide M21 (ligand) YFPKLRSKLSVIRNLNDQVLFIDQGNRPLFEDMTDSDCRDNAPRTIFIISMYKSSSTRGMAVTISVKCEKISTLSCENKIISFKEMNPPDGIKDTKSDIIFFQSSVPGHDNKMQFESSSYEGYFLACEKERDLFKLILKKEDELGDRSIMFTVQNED | 1.9 | 2.1 | 1.11 | 0.045 | 0.049 | 1.09
2 | IL-18 variant polypeptide M24 (ligand) YFPKLRSKLSVIRNLNDQVLFIDQGNRPLFEDMTDSDCRDNAPRTIFIISMYKYSTSRGMAVTISVKCEKISTLSCENKIISFKEMNPPDNIKDTKSDIIFFQRSVPGHDNKMQFESSSYEGYFLACEKERDLFKLILKKEDELGDRSIMFTVQNED | 0.99 | 1.99 | 2.01 | 0.054 | 0.08 | 1.48
